B1: soluble 7D10 (antibody, V domains shown)
VH: EVQLVESGAEVVKPGASVKMSCKASGYPFTSYNIHWIKQTPGQGLEWIGAIYPGNGDTSYTQKFKVKATLTSDKSSSTAYMQLSSLTSEDSAVYFCARYGNYPSYAMDYWGQGTSVTVSS
VL: DIVMTQSPASLTVSLGQRATISCRASKSVSASGYNYLHWYQQRPGQPPKLLIYLAFNLESGVPARFNGSGSGTDFTLNIHPVEEEDAATYYCQHSRDLPFTFGSGTKLEIK
B2: αNTD:7D10/VM (scFv)
scFv: DIVMTQSPASLTVSLGQRATISCRASKSVSASGYNYLHWYQQRPGQPPKLLIYLAFNLESGVPARFNGSGSGTDFTLNIHPVEEEDAATYYCQHSRDLPFTFGSGTKLEIKGGGSGGGSGGGSEVQLVESGAEVVKPGASVKMSCKASGYPFTSYNIHWIKQTPGQGLEWIGAIYPGNGDTSYTQKFKVKATLTSDKSSSTAYMQLSSLTSEDSAVYFCARYGNYPSYAMDYWGQGTSVTVSSSRGMLDSDLHLSSKAQVFEHPHIQDAASQLPDDESLFFGDTGLSKNPIELVEGWFSSWKSSIASFFFIIGLIIGLFLVLRVGIHLCIKLKHTKKRQIYTDIEMNRLGK

Target: MERS CoV spike protein (MERS CoV) (UniProt K9N5Q8)
Sequence (K9N5Q8 18-1353): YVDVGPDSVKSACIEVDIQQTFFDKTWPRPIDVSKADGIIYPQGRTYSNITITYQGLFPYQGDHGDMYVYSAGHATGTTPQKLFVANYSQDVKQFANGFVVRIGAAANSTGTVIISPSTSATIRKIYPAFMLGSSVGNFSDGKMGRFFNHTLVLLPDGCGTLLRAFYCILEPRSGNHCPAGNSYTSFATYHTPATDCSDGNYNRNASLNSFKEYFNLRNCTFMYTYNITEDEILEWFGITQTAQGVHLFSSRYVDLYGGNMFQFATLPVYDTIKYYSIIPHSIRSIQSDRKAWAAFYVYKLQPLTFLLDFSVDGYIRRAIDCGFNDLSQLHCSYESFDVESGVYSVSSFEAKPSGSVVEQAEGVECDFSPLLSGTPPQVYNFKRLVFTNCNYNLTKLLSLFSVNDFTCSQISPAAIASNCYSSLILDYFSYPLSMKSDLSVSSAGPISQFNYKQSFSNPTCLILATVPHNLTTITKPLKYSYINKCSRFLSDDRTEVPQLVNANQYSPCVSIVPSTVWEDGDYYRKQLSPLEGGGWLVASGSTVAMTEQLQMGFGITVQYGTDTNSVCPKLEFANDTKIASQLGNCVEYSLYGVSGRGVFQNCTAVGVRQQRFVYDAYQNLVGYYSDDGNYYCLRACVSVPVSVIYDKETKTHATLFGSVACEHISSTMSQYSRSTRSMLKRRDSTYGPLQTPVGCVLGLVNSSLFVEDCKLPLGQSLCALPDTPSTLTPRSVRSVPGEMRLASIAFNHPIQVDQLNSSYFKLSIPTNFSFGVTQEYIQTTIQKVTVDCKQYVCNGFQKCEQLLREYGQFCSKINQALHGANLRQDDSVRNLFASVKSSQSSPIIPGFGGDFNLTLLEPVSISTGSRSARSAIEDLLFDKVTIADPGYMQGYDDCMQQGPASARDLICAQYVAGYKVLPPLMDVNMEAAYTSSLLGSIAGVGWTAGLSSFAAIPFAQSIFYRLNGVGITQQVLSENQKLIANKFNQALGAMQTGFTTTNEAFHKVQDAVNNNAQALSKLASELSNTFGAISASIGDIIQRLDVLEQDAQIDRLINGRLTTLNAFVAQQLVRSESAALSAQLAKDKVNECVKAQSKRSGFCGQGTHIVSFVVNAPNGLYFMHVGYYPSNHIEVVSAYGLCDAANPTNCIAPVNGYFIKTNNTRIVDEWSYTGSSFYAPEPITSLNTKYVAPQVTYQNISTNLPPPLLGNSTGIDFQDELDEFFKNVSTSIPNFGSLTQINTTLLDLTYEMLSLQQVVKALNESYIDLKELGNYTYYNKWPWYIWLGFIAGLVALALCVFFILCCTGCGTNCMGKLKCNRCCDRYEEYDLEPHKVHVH
Test: cell-based or functional assay

Row | Binder | IC50, neutralization of MERS CoV by the soluble antibody [nM] | Antivirus vs Pseudovirus IC50 (pM)
1 | B1 | 1.2 | –
2 | B2 | – | 12
